Test results reported in the supplement of paper PMC11780869.

Tested on: Bacillus subtilis
Assay: cleaved RNA product abundance (RNA/gDNA barcode ratio) relative to median wild-type variant (ratio to wild type); higher = more accumulation of the downstream cleavage product
Details: experiment (reporter, strain, medium): exp 8a: truncated aprE reporter, strain BJT201 with 2% xylose (RNase J1 expressed); cleavage site: glnRA (positions -5 to +31 mutated)
Method in brief: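 Cleaved product abundance for each construct is its RNA-to-gDNA barcode ratio, scaled to the median construct carrying the unmutated site. Cleaved RNA was isolated on a gel, reverse transcribed and barcode-sequenced, with genomic DNA barcodes sequenced alongside and UMIs collapsed. The reporters were truncated aprE or tetM mRNAs with barcoded, mutagenized RNase Y cleavage-site windows integrated into the B. subtilis chromosome, and cultures grew in LB at 37°C from OD600 0.0003 to 0.3.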

Sequence	cleaved RNA product abundance
CGACATGTCCCGCTTCTTTCATTAATCCGGTAGCAACTGTTTTGATATATACATTTACCTTTTAAGAGGAGGAAT	0.316
CGACATGTCCCGCTTCTTTCATTAATCCGGTAGCAACTGTTTTGCAATATACATTTACCTTTTAAGAGGAGGAAT	0.533
CGACATGTCCCGCTTCTTTCATTAATCCGGTAGCAACTGTTTTGCTAGATACATTTACCTTTTAAGAGGAGGAAT	0.545
CGACATGTCCCGCTTCTTTCATTAATCCGGTAGCAACTGTTTTGCTATATACATTTACCTTTTAAGAGGAGGAAT	0.945
CGACATGTCCCGCTTCTTTCATTAATCCGGTATCAACTGTTTTGCTATATACATTTACCTTTTAAGAGGAGGAAT	0.375
CGACATGTCCCGCTTCTTTCATTAATCCGTAAACAACTCTTTTGCTATATACATTTACCTTTTAAGAGGAGGAAT	0.202
CGACATGTCCCGCTTCTTTCATTAATCCGTAAACAACTGTTTTGCTATATACATTTACCTTTTAAGAGGAGGAAT	0.159
CGACATGTCCCGCTTCTTTCATTAATCCGTAACCAACTGTTTTGCTATATACATTTACCTTTTAAGAGGAGGAAT	0.187
CGACATGTCCCGCTTCTTTCATTAATCCGTAAGCAACAGTTTTGCTATATACATTTACCTTTTAAGAGGAGGAAT	0.348
CGACATGTCCCGCTTCTTTCATTAATCCGTAAGCAACTGATTTGCTATATACATTTACCTTTTAAGAGGAGGAAT	0.25
CGACATGTCCCGCTTCTTTCATTAATCCGTAAGCAACTGTATTGCTATATACATTTACCTTTTAAGAGGAGGAAT	0.367
CGACATGTCCCGCTTCTTTCATTAATCCGTAAGCAACTGTTTCGCTATATACATTTACCTTTTAAGAGGAGGAAT	0.145
CGACATGTCCCGCTTCTTTCATTAATCCGTAAGCAACTGTTTGGCTATATACATTTACCTTTTAAGAGGAGGAAT	0.371
CGACATGTCCCGCTTCTTTCATTAATCCGTAAGCAACTGTTTTACTATATACATTTACCTTTTAAGAGGAGGAAT	0.583
CGACATGTCCCGCTTCTTTCATTAATCCGTAAGCAACTGTTTTCCTATATACATTTACCTTTTAAGAGGAGGAAT	0.354
CGACATGTCCCGCTTCTTTCATTAATCCGTAAGCAACTGTTTTGATATATACATTTACCTTTTAAGAGGAGGAAT	0.329
CGACATGTCCCGCTTCTTTCATTAATCCGTAAGCAACTGTTTTGCCATATACATTTACCTTTTAAGAGGAGGAAT	0.295

Sequence	cleaved RNA product abundance
CGACATGTCCCGCTTCTTTCATTAATCCGTAAGCAACTGTTTTGCTAAATACATTTACCTTTTAAGAGGAGGAAT	0.36
CGACATGTCCCGCTTCTTTCATTAATCCGTAAGCAACTGTTTTGCTACATACATTTACCTTTTAAGAGGAGGAAT	0.38
CGACATGTCCCGCTTCTTTCATTAATCCGTAAGCAACTGTTTTGCTATATAAATTTACCTTTTAAGAGGAGGAAT	0.474
CGACATGTCCCGCTTCTTTCATTAATCCGTAAGCAACTGTTTTGCTATATACAATTACCTTTTAAGAGGAGGAAT	0.478
CGACATGTCCCGCTTCTTTCATTAATCCGTAAGCAACTGTTTTGCTATATACATATACCTTTTAAGAGGAGGAAT	0.551
CGACATGTCCCGCTTCTTTCATTAATCCGTAAGCAACTGTTTTGCTATATACATTAACCTTTTAAGAGGAGGAAT	0.756
CGACATGTCCCGCTTCTTTCATTAATCCGTAAGCAACTGTTTTGCTATATACATTTAACATTTAAGAGGAGGAAT	0.275
CGACATGTCCCGCTTCTTTCATTAATCCGTAAGCAACTGTTTTGCTATATACATTTAACTTTTAAGAGGAGGAAT	0.79
CGACATGTCCCGCTTCTTTCATTAATCCGTAAGCAACTGTTTTGCTATATACATTTACATTTTAAGAGGAGGAAT	0.531
CGACATGTCCCGCTTCTTTCATTAATCCGTAAGCAACTGTTTTGCTATATACATTTACCATTTAAGAGGAGGAAT	0.381
CGACATGTCCCGCTTCTTTCATTAATCCGTAAGCAACTGTTTTGCTATATACATTTACCTTTTAAGAGGAGGAAT	0.434
CGACATGTCCCGCTTCTTTCATTAATCCGTAAGCAACTGTTTTGCTATATACATTTACGTTTTAAGAGGAGGAAT	0.475
CGACATGTCCCGCTTCTTTCATTAATCCGTAAGCAACTGTTTTGCTATATACATTTACTTTTTAAGAGGAGGAAT	0.641
CGACATGTCCCGCTTCTTTCATTAATCCGTAAGCAACTGTTTTGCTATATACATTTATCTTTTAAGAGGAGGAAT	0.536
CGACATGTCCCGCTTCTTTCATTAATCCGTAAGCAACTGTTTTGCTATATACATTTCCCTTTTAAGAGGAGGAAT	0.212
CGACATGTCCCGCTTCTTTCATTAATCCGTAAGCAACTGTTTTGCTATATACCTTTACCTTTTAAGAGGAGGAAT	0.207
